Entries after “also recorded” stand apart in the source; their conditions may differ.
T1: gp130-Fc (Homo sapiens, UniProt P40189)
T1 construct: DNA encoding the extracellular domain of human gp130 was amplified; made in house; host or cells: insect cells (Bac-to-Bac baculovirus) for gp130-Fc; E. coli BLR-DE3 for OSM
T1 sequence (P40189 23-619 limits assumed): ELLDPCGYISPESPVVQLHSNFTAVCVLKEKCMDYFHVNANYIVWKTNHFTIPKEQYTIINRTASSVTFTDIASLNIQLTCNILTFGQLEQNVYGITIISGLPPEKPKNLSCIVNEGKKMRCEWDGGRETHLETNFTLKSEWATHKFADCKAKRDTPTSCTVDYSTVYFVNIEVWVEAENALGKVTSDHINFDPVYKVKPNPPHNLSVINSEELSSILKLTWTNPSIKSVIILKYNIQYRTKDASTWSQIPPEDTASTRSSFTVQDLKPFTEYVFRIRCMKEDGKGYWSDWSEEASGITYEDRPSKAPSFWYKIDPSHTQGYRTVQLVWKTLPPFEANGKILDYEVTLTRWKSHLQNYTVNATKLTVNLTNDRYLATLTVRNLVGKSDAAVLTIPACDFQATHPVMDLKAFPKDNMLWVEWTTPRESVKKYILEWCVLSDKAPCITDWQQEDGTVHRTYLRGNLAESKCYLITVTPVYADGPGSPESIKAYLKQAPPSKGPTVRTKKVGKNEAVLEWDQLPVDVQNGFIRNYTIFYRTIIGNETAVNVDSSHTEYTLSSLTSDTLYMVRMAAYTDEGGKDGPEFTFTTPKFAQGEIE


How the values were obtained:
[1] = test system: HepG2 B6 cells (STAT-sPAP reporter); experiment: OSM-GST mutant driven sPAP production in HepG2 B6 assay; format: cell-based, human; settings: for 'Potency': relative to wild type, from Mean %
Description: HepG2 B6 cells were plated into 96 well plates to a final concentration of 3×10^4 cells per well in 100 μl of media (DMEM (Sigma), 10% HI FCS, 1% non-essential amino acids, 2 mM Glutamine, 500 μg ml^−1 G418, (all from Life Technologies)). Cells were allowed to equilibrate for 48 hours. Putative anti-OSM solid compounds were made up to a stock dilution of 20 mM in DMSO and serially diluted 1:3 in DMSO. This was then further diluted in HepG26B assay media, this is as above media but with 1% heat inactivated FCS, low alkaline phosphatase activity (Life Technologies) substituted for 10% HI FCS. Compounds were diluted 1:3 from a top concentration of […] to a final concentration of 0.09 μM in a final concentration of 1% DMSO. (That is 200, 66.67, 22.22, 7.41, 2.47, 0.82, 0.27, 0.09 and 0 μM). The old media was removed from the wells and replaced with diluted compound also containing 2 ng ml^−1 OSM (R&D Systems), cells were incubated for a further 20 hours. Each dilution was performed in triplicate. 20 μl of media was removed from each well and assayed for sPAP activity using pNPP (p-Nitrophenyl phosphate; Sigma), as a substrate. Endogenous alkaline phosphatase is blocked with L-homoarginine. Optical density of substrate is read at 405-650 nm. Concentration of compound is plotted against OD as a measure of sPAP produced and can be analysed to determine IC50 values.
The assay described in Example 7b above was employed. OSM-GST mutants were diluted to a concentration of 100 ng ml^−using the known concentration of intact OSM mutants generated in Example 9b. A wild type OSM-GST was included for control purposes. Dilutions were made in HepG2 B6 media with 1% heat inactivated FCS, low alkaline phosphatase activity. Serial 1:3 dilutions were then made. (100; 33.33; 11.11; 3.7; 1.23; 0.4 ng ml^−1). 3×10^4 HepG2 B6 were dispensed into individual well of a 96 well plate in 100 μl of media. Cells were allowed to equilibrate for 48 hours. Media was then removed and replaced with 100 μl of diluted OSM-GST mutant. Cells were incubated for a further 20 hours. Each dilution was performed in triplicate. 20 μl of media was removed and assayed for sPAP using pNPP as a substrate. Endogenous ALP was blocked with L-homoarginine. O.D. was read at 405-650 nm. The experiment was repeated twice.

[2] = biological target: T1, gp130-Fc; experiment: Competition of OSM-GST with plate-bound wild type OSM for binding to gp130-Fc (ELISA); settings: for inhibition: at the maximum concentration tested (10 μg/ml)
Description: Nunc Immunoplates (F6 Maxisorp, Life Technologies) were coated overnight (4° C.) with wild type OSM (produced according to Example 7a); 50 μl/well, 1 μg/ml in carbonate/bicarbonate buffer pH 9.4). Plates were washed (×6 in PBS 0.05% tween 20, using Skatron Plate washer), tapped dry and blocked to reduce non-specific binding (200 μl/well, 1% BSA/PBS). Following 1 h incubation (room temperature on a shaking platform) the plates were tapped dry and wild type (wt) or mutant OSM-GST from Example 9b added (50 μl/well, 20-0.002 μg/ml, titrated in 1%BSA/PBS). As a positive control polyclonal anti-human OSM antibody (R&D Systems) was also tested (20-0.02 μg/ml). A complex of gp130-Fc (Produced as below 300 ng/ml) and anti-human IgG alkaline phosphatase conjugate (1:500, Sigma) in 1% BSA/PBS (50 μl/well) was added immediately after the agents under test. Following a 5 h incubation (room temperature on a shaking platform) the plates were washed (×6) and developed using ELISA Amplification System (Life Technologies) as manufacturer's instructions and the OD measured at 490 nm. On each plate the total binding was determined by gp130-Fc/conjugate and OSM in the presence of 1% BSA/PBS, and non-specific binding by gp130-Fc/conjugate in absence of OSM, or conjugate binding to OSM in absence of gp130-Fc.
Mutant and wt OSM-GST were tested to obtain IC50 in 3-6 experiments. The mean OD in the presence of OSM and gp130-Fc in the absence of competing ligand (i.e., total binding) was 1.157 (range 0.825-1.807) and the non specific binding was less than 0.08.

Row | Molecule | driving sPAP production [1] | 'Potency' [1] | ability to compete with wt OSM for gp130 binding [2] | inhibition [2] [%] | Expt 1 EC50 [1] [mg/L] | Expt 2 EC50 [1] [mg/L]
1 | (13) Q20A: OSM-GST fusion, alanine for Gln 20 (protein, left off: a dimerising Fc or GST; large carriers; small tags and cut ends) AAIGSCSKEYRVLLGQLQKATDLMQDTSRLLDPYIRIQGLDVPKLREHCRERPGAFPSEETLRGLGRRGFLQTLNATLGCVLHRLADLEQRLPKAQDLERSGLNIEDLEKLQMARPNILGLRNNIYCMAQLLDNSDTAEPTKAGRGASQPPTPTPASDAFQRKLEGCRFLHGYHRFMHSVGRVFSKWGESPNRSRR | less effective at driving sPAP production; also recorded: didn't drive sPAP at all | NONE | substantial decrease | 66±2.3 |  | 
2 | (9) Q16A: OSM-GST fusion, alanine for Gln 16 (protein, left off: a dimerising Fc or GST; large carriers; small tags and cut ends) AAIGSCSKEYRVLLGALQKQTDLMQDTSRLLDPYIRIQGLDVPKLREHCRERPGAFPSEETLRGLGRRGFLQTLNATLGCVLHRLADLEQRLPKAQDLERSGLNIEDLEKLQMARPNILGLRNNIYCMAQLLDNSDTAEPTKAGRGASQPPTPTPASDAFQRKLEGCRFLHGYHRFMHSVGRVFSKWGESPNRSRR | less effective at driving sPAP production; also recorded: didn't drive sPAP at all | NONE | substantial decrease | 15±8 |  | 
3 | (6) L13A: OSM-GST fusion, alanine for Leu 13 (protein) AAIGSCSKEYRVALGQLQKQTDLMQDTSRLLDPYIRIQGLDVPKLREHCRERPGAFPSEETLRGLGRRGFLQTLNATLGCVLHRLADLEQRLPKAQDLERSGLNIEDLEKLQMARPNILGLRNNIYCMAQLLDNSDTAEPTKAGRGASQPPTPTPASDAFQRKLEGCRFLHGYHRFMHSVGRVFSKWGESPNRSRR |  | LESS (>120% Less potent than wild type) | substantial decrease |  | 0.0657 | 0.0549
4 | (20) G120A: OSM-GST fusion, alanine for Gly 120 (protein, left off: a dimerising Fc or GST; large carriers; small tags and cut ends) AAIGSCSKEYRVLLGQLQKQTDLMQDTSRLLDPYIRIQGLDVPKLREHCRERPGAFPSEETLRGLGRRGFLQTLNATLGCVLHRLADLEQRLPKAQDLERSGLNIEDLEKLQMARPNILALRNNIYCMAQLLDNSDTAEPTKAGRGASQPPTPTPASDAFQRKLEGCRFLHGYHRFMHSVGRVFSKWGESPNRSRR | less effective at driving sPAP production; also recorded: didn't drive sPAP at all | NONE | substantial decrease |  |  | 
5 | (22) N123A: OSM-GST fusion, alanine for Asn 123 (protein, left off: a dimerising Fc or GST; large carriers; small tags and cut ends) AAIGSCSKEYRVLLGQLQKQTDLMQDTSRLLDPYIRIQGLDVPKLREHCRERPGAFPSEETLRGLGRRGFLQTLNATLGCVLHRLADLEQRLPKAQDLERSGLNIEDLEKLQMARPNILGLRANIYCMAQLLDNSDTAEPTKAGRGASQPPTPTPASDAFQRKLEGCRFLHGYHRFMHSVGRVFSKWGESPNRSRR |  | LESS (>120% Less potent than wild type) | substantial decrease |  | 0.0379 | 0.0497
6 | (23) N124A: OSM-GST fusion, alanine for Asn 124 (protein, left off: a dimerising Fc or GST; large carriers; small tags and cut ends) AAIGSCSKEYRVLLGQLQKQTDLMQDTSRLLDPYIRIQGLDVPKLREHCRERPGAFPSEETLRGLGRRGFLQTLNATLGCVLHRLADLEQRLPKAQDLERSGLNIEDLEKLQMARPNILGLRNAIYCMAQLLDNSDTAEPTKAGRGASQPPTPTPASDAFQRKLEGCRFLHGYHRFMHSVGRVFSKWGESPNRSRR |  | EQUAL (80-120% Equal potency) | substantial decrease |  | 0.0302 | 0.0362

Source: patent publication US7291332B2, “Inflammatory mediator antagonists” (SmithKline Beecham Corporation, priority 1998, dated 2007)
